The values that follow come from paper PMC3177201.

In data set [1] the target is T1, Prp24 oRRM4 (Saccharomyces cerevisiae, UniProt P49960 292-400).
T1 sequence: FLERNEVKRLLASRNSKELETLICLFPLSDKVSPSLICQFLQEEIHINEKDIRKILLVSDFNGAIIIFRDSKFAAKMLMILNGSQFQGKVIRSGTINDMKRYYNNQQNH
The data set is described as follows: fluorescence anisotropy.

The target of data set [2] is T1, Prp24 oRRM4. In words: fluorescence anisotropy. The source holds these as a separate data set. (Fluorescence polarisation rises when a labelled molecule tumbles more slowly, as on binding a larger partner.)

B1: U2 nt 1-51, 5'-FITC (ssRNA)
RNA: ACGAAUCUCUUUGCCUUUUGGCUUAGAUCAAGUGUAGUAUCUGUUCUUUUC
B1: in the data set with Prp24 oRRM4 [1], the binding result was “binds”. In the case of AGAGAUGAUCAGCAGUUCCCCUGCAUAAGGAUGAACCGUU (structured_RNA) [U6 nt 49-88, 5'-Cy5], the equilibrium dissociation constant (Kd) with Prp24 oRRM4 [2] came out at 3.1 µM.

As a reminder, the Kd is the equilibrium constant for the complex coming apart.
